Assay results taken from the DeepSol protein solubility set.

Experiment: soluble on expression in E. coli; label from the status in PepcDB or PDB records

Question: Which “soluble on expression in E. coli” value does the source give for “MSLSDTHIPLPERLRPRDLSEIIGQDHLLGEHAPLRQMIDQGHLPSIIFWGPPGVGKTTIALLLAQAVDRPFVSLSALNTGVKELREIIAESGDLLTPVVFIDEIHRFNKSQQDALLNAVEKGKITLIGATTENPSFEVNSALLSRCQVYTLNVLDSAAIQNLIDRAIDSDSFLKQRHIHIEEYEALIQFAAGDARKALNLIDLIASTFEPDQENIVTNAVTVKVAQQNIARYDKSGEQHYDIISAFIKSIRGSDPDAALYWMARMIKGGEDPVFIARRMLIAASEDIGNSNPNALLLAGECFRSVQAVGMPEARIILGQCAVYLATSPKSNSTYLAIDRALALAEKTANLPVPLHLRNAPTKLMKQQGYGADYLYPHHYPEHFVLQEYLPPELKGTKLYEFSRNKREVEGERLQQRRWQQDQEGHHHHHH” here?
Answer: The value was “soluble”.

Question: For “MSLSEDKMDLYLQQGMYGPLETKPDERHLFLGSLRERVVLALTKGQVLRSKPYKEAEHELKNSHNVTLLINGELQYQSYSSYIQMASRYGVPFKIVSDLQFHTPLGIVIAADIAVNRELIYIQDDIYNRSVLKSEGHHHHHH”, which “soluble on expression in E. coli” value is on record?
Answer: The value was “soluble”.

Question: Which “soluble on expression in E. coli” value does the source give for “MSLSEDLRFFEFFAGGGMARAGLGNQWQCLFANDMDRIKASTYIQNWGKDHFDSRDIREVNSEDLERNGDLAWASFPCQDLSVAGNGLGIGSSSAKDFTRSGALWPFLDLIDTLRQEERQPPLLVLENVVGLLTLEGGRDFAAICERLGEIGYRYGAVIIDAKHFLPQSRPRVFIIAVQRNIDIPCKLSRGMATANWHTPTLLRAYKSLTPILHADWVWWELGDAPILQENALESFIQREGVLWNTPEETKRIISMMAPAHLARLENAKCAGGVAVGSLYLRMRREGGINKQRAEITFSPLLGCLRTPRGGASRPRIIVVESGHVRTRLLTICEAARLMGLANTYILPEIYHHAFKVIGDGVAVPAVRFLAERLLEPLAIAAEGHHHHHH” here?
Answer: Its value is “not soluble”.

Question: With “MSLSEENVKLAEELIRKGYNEKKIRSLLKLPDEEFKLALEVARARIKAKDKFSRSDLWFDLEGLRYATHEVVADYRGRRLKGQGVKSIADVSCGVGIQLIFFAKHGIRSVGIDIDPIKIEFAKRNAEKYGVEVEWVVGDALSPEIIEKVDAEVIFSDPARPPEVPERNLEDLLPSPLKIYEAYKHKTDSFIFDLPPQIRREKVPWKGEFEYIDLFGHVNRLTFYTEPLAKAERSAVILPQGARLESNPDLENIVEETMEPERYIYEIPQSIDYADLINELFHKVNGELKLLLREKRRILATSNDEVKSEYFKRSYIVVKVMPFHPVRINDFLRREGYGRATLRMSVDEKEYWRIRKKIESGLSGDKRAFVFKVRDLAVIAEEIPQAEGHHHHHH” as the sequence, how does the “soluble on expression in E. coli” value read?
Answer: The value was “soluble”.

Question: With “MSLSENLIIFNAKVVTPLGFSARKGKEMAELRILEKATVEVVDGIITYVGPNRGEVRDGYYHHFWHYNARGKCLLPGFVDSHTHFVFGGERAEEFSWRLKGESYMSIMQRGGGIASTVQATRELSFIHLRSKAEGLLKKMTAMGITTVEGKSGYGLNRETELLQLKVMRSLNKDEGVRVDIVPTFLGAHALPDEYKERPDDYIDFLIRELLPVIQRDSLAEFCDVFCEEGVFSIEQSRRLLTAAGDYGLLPKLHADEIVPLGGAELAAELGAVSADHLLHASDAGIEAMARKGVVATLLPLTAFALKEPYARGRDMIDAGCAVALATDLNPGSCFSGSIPLTFALACIHMQLTVEEAITALTLNGAAALNRADSIGSIEVGKKGDFVVLDSDNYHILPYYVGMNCVNTTIKGGMLYPSEGHHHHHH” as the sequence, how does the “soluble on expression in E. coli” value read?
Answer: The value was “soluble”.

Question: With “MSLSETLLEKNWKFSKGDFPEAAQTDYNDTKWESVVIPHDWAIFGPFDMNNDLQNVAVTQNFEKKASLKTGRTGGLPYVGTGWYRTSFDVPADKEVTLLFDGAMSEARVYVNGQEACFWPFGYNSFHCNVTPFLNKDGKNNTLAVRLENRPQSSRWYPGAGLYRNVHLIVTEKVHIPVWGTQITTPHVSDEFAAVRLQTKIENAGEKTEIRIETEILSPDGKVVTRKENKGRINHGQPFEQNFIVNAPQLWSPESPALYKAVSKVYADNQLVDTYSTRFGIRSIEYIADKGFYLNGKHRKFQGVCNHHDLGPLGAAINVAALRHQLTLLKDMGCDAIRTSHNMPAPELVELCDEMGFMMMIEPFDEWDIAKCENGYHRYFNEWAERDMVNMLHNYRNNPCVVMWSIGNEVPTQCSPVGYKVAKFLQDICHREDPTRPVTCGMDQVTCVLANGFAAMIDIPGLNYRANRYQEAYDKLPQNLILGSETASTVSSRGVYKFPVKDKKSAQYDDHQCSSYDVEACSWSNIPDEDFALADDHHWTIGQFVWTGFDYLGEPSPYDTDAWPNHSSMFGIIDLASLPKDRYYLYRSIWNKEAETLHILPHWTWPGREGEVTPVFVYTNYPAAELFINGKSYGKQSKNNSSLKSRYRLMWMDAIYEPGEVKVVAYDKDGKAVAEKSVRTASKPHHIELVSNRNELTADGKDLAYVTVKVVDKDGNLCPADSRLINFSVKGAGKYRAGANGDPTSLDLFHLPKMHAFNGMLTAIVQTNETAGEIILTAKAGGVKAGSIRLLTKEGHHHHHH” as the sequence, how does the “soluble on expression in E. coli” value read?
Answer: The value was “soluble”.

Question: Which “soluble on expression in E. coli” value does the source give for “MSLSFFAHFSPLSGHQKQAAHQILPHLFLGSAAAARSATWLQQNRITHIVCVHNAEVSPHELKRQLTISHPAGDTRATSHHHRQQTVAGQLVVHPDRCVYCCCYVQDTPQQVFLPVLFPVMDFIDNAIRDQSFRGGSPSGAPHGNVLVHCAKGISRSASLVICYLMFRRCWSYADSFTYIRRKRPIYPNVGFQASILTQLLETQELVENMFSQSEGHHHHHH” here?
Answer: Its value is “not soluble”.

Question: For “MSLSFLKHVQDCNTHDLSNFVRFVIEGRRVGWVRKALAQRLKAHGRVFDVTRDAVLLSASLRTPQSRTRAVADVVDRLADEGVVPAPRGELYRVNQSWGEPTLMLLDRAVVPTFGVRAYGVHLNGYVGAGADLHLWIGRRSPDKSVAPGKLDNMVAGGQPADLSLRQNLIKECAEEADLPEALARQAIPVGAITYCMESPAGIKPDTLFLYDLALPEDFRPHNTDGEMADFMLWPAAKVVEAVRTTEAFKFNVNLTVIDFAIRHGLIDPDNEGHHHHHH”, which “soluble on expression in E. coli” value is on record?
Answer: The value was “not soluble”.

Question: With “MSLSGDDFSVPSKNSESTLFDSVEGDGAMMEEGVKSRPRQKKTQACLASKHVQEAPRLEPANEEHNVETAEDSEIRYLSADSGDADDSDADLGSAVKQLQEFIPNIKDRATSTIKRMYRDDLERFKEFKAQGVAIKFGKFSVKENKQLEKNVEDFLALTGIESADKLLYTDRYPEEKSVITNLKRRYSFRLHIGRNIARPWKLIYYRAKKMFDVNNYKGRYSEGDTEKLKMYHSLLGNDWKTIGEMVARSSLSVALKFSQISSQRNRGAWSKSETRKLIKAVEEVILKKMSPQELKEVDSKLQENPESCLSIVREKLYKGISWVEVEAKVQTRNWMQCKSKWTEILTKRMTNGRRIYYGMNALRAKVSLIERLYEINVEDTNEIDWEDLASAIGDVPPSYVQTKFSRLKAVYVPFWQKKTFPEIIDYLYETTLPLLKEKLEKMMEKKGTKIQTPAAPKQVFPFRDIFYYEDDSEGHHHHHH” as the sequence, how does the “soluble on expression in E. coli” value read?
Answer: Its value is “not soluble”.

Question: With “MSLSGKVGAPTLEVLRTAVSKRWSANSDLIDAIEHVSRQALLELAERAGQVDEVEDQLFRFSRILDVQPRLAILLGDCAVPAEGRVRLLRKVLERADSTVNPVVVALLSHTVELLRGQAVEEAVLFLAEVAVARRGEIVAQVGAAAELSDAQRTRLTEVLSRIYGHPVTVQLHIDAALLGGLSIAVGDEVIDGTLSSRLAAAEARLPDEGHHHHHH” as the sequence, how does the “soluble on expression in E. coli” value read?
Answer: Its value is “not soluble”.

Question: Which “soluble on expression in E. coli” value does the source give for “MSLSIRYIVKTDVSETFEIIKAGQVGSNIVFSEIRTFDFGELATLACEKFYFRSSNRAALFVNINNFHGETEVTIISTGSSNGFFTGIDWGAAFDYMHSVVADLKRVAIREVKMEKQEEGHHHHHH” here?
Answer: Its value is “soluble”.

Question: Which “soluble on expression in E. coli” value does the source give for “MSLSKTYVGSRVRQLRNERGFSQAALAQMLEISPSYLNQIEHDVRPLTVAVLLRITEVFGVDATFFASQDDTRLVAELREVTLDRDLDIAIDPHEVAEMVSAHPGLACAVVNLHRRYRITTAQLAAATEERFSDGSGRGSITMPHEEVRDYFYQRQNYLHALDTAAEDLTAQMRMHHGDLARELTRRLTEVHGVRINKRIDLGDTVLHRYDPATNTLEISSHLSPGQQVFKMAAELAYLEFGDLIDAMVTDGKFTSAESRTLARLGLANYFAAATVLPYRQFHDVAENFRYDVERLSAFYSVSYETIAHRLSTLQRPSMRGVPFTFVRVDRAGNMSKRQSATGFHFSSSGGTCPLWNVYETFANPGKILVQIAQMPDGRNYLWVARTVELRAARYGQPGKTFAIGLGCELRHAHRLVYSEGLDLSGDPNTAATPIGAGCRVCERDNCPQRAFPALGRALDLDEHRSTVSPYLVKQEGHHHHHH” here?
Answer: Its value is “soluble”.

Question: Which “soluble on expression in E. coli” value does the source give for “MSLSLKELLKDRLSEEELKLVRRSFEIIGDVVIIEIPDEIMHHSRDIVEAILKRHKHVKTVLRKVGEVDGVYRVARYEPIYGEKTETVVREHGCRFLVDPTKAYYSVKLSGERERIARLVGEGERVLVMFAGVGPYPIVIAKLARPREVVGVELNPHAVEYFRQNVRLNKVEGVVKVIEGDVEEVVPQLSGQFDRVVMPAPYSAENFIHLLRGKVRRGGFVHYYTFDSQNEEKILPEKVRRKFEDEGLEVEVVKMRRCGNFAPYVNRYVLDLRVLEGHHHHHH” here?
Answer: Its value is “soluble”.

Question: For “MSLSLRLPLAGGGLETFKLSAPRDFPARASGPMNRIAFSAAHVVADPLAASDPWLEAAIDWDHTIAYRQRLWDLGLGVAEAMDTAQRGMGLDWPTSLDLIRRSVEAAKAHGPEALVFSGAGTDHLAPEAARSLDDVIRAYEEQVAAVEKVGGRIILMASRALARIGTSAADYETVYGRILSQVREPVIIHWLGDMFDPALAGYWGTRDLDAAMDTAVAIINAHAAKVDGVKISLLDKDKEIAMRRRLDPAVRMYTGDDFNYAELVAGDAQGYSHALLGIFDAIAPAASAALTALAAGDEAGFHDILAPTVPLSRHIFRAPTRFYKTGVVFMAYLNGHQDHFTMVGGQESARSTLHLAELFRLADRAGLLTDPDLAVQRMRAVLAVRGVEAEGHHHHHH”, which “soluble on expression in E. coli” value is on record?
Answer: Its value is “soluble”.

Question: With “MSLSLSSIIKNIPKAELHLHIEGSLTPELMWRLAEKHSVSLPYASVEEIEAAYNFEDLQSFLDLYYAGAGVLRDEDDFFALMWEYLTRCHEDNIVHTEIMFDPQTHTERDIGFDIFMPGFLKAMEKAKDEYGISSYLIMSFLRHLPEDAAFDTLSAAEPYYEHITAVGLDSSELGHPPSKFERVFKKAKALGFKIVAHAGEEGPASYIWEAIELLDVDRIDHGVRCQEDEALMDLLKERQIPLTVCPLSNLKLCVINDMKDHNIVQLLDAGLLVTVNSDDPTYFGGFLNDNFEALHQSLGIDEKTVRTLVANSFKASFLPQEQKNQLVEKVLSAEGHHHHHH” as the sequence, how does the “soluble on expression in E. coli” value read?
Answer: The value was “soluble”.

Question: For “MSLSMITLWGRNNSTNVKKVLLTLEELELPYEQILAGREFGINHDADFLAMNPNGLVPLLRDDESDLILWESNAIVRYLAAQYGQKRLWIDSPARRAEAEKWMDWANQTLSNAHRGILMGLVRTPPEERDQAAIDASCKECDALFALLDAELAKVKWFSGDEFGVGDIAIAPFIYNLFNVGLTWTPRPNLQRWYQQLTERPAVRKVVMIPVSEGHHHHHH”, which “soluble on expression in E. coli” value is on record?
Answer: Its value is “soluble”.

Question: Which “soluble on expression in E. coli” value does the source give for “MSLSQIVAEVDGYKVTKEELDTLFHVFWKRITHLSSAKPTQEDKRIFLIDYVADLLILKEAKKMGIEVSEKEINDFIRKYVGRKIKEKSVINAVKAEILVEKLVDKLMKEQELNPSEDILRAYYEFYKREFYRPSSVKLLGIYVKSKKEAERISQILKQGEVPSTEDVKVSKPLWYSIPTLPKYIRRNFRTLSVGEVSKPIKINDGYLVFKILDKKPAGFIPFERAKSLVKKMYLKEKRKEVFKKWLSEVLKKYQVRSTGKEGHHHHHH” here?
Answer: The value was “not soluble”.
